From publication PMC3258132 (Nucleic Acids Research, 2011) come the findings set out here.

Where two headings read alike, the source gives them in different places.

Data set [1] addresses T1, L1 ORF1p (Homo sapiens (L1.3, Ta-1 subfamily of …, UniProt Q9UN81)). The data set is described as follows: filter binding.
Data set [2] addresses T1, L1 ORF1p. The data set can be described thus: EMSA. Background: In EMSA bound probe runs differently from free probe, usually more slowly.
For data set [3], the target named is T1, L1 ORF1p. The data set is described as follows: filter binding. This is another data set of the same source.
Data set [4] has as its target T1, L1 ORF1p. The data set can be described thus: EMSA. The source holds these as a separate data set.
Data set [5] deals with T1, L1 ORF1p. The data set is described as follows: filter binding. This is another data set of the same source.
Data set [6] addresses T1, L1 ORF1p. The data set can be described thus: EMSA. The source holds these as a separate data set.
Data set [7] concerns the molecule itself. The data set is described as follows: AUC.
Data set [8] deals with the molecule itself. The data set can be described thus: AUC. The source holds these as a separate data set.
Data set [9] concerns the target T1, L1 ORF1p. The data set can be described thus: filter binding. The source holds these as a separate data set.
Data set [10] deals with the molecule itself. The data set can be described thus: AUC. This is another data set of the same source.

Turning to GCGAGTTGATGTTAGACTGTGTACTTTTT (ssDNA) [d29_c], the binding signal with L1 ORF1p [1] is ~1 fold of mismatched duplex affinity.

B1: d58_pT-b (ssDNA)
DNA: GAGAGATTTTTTTTTTTTTTTTTTTTTTTTTTTTTTTTTTTTTTTTTTTTTCCAGAGC
Turning to B1, the binding result with L1 ORF1p [2] is given as “binds”.

B2: d60_c (ssDNA)
DNA: AGCGAGTTGATGTTAGACTGTGTACTTTTTGCGAGTTGATGTTAGACTGTGTACTTTTTA
With B2, the “apparent K (half saturation)” value with L1 ORF1p [3] is roughly 1 nM.

B3: r60_U (ssRNA)
RNA: UUUUUUUUUUUUUUUUUUUUUUUUUUUUUUUUUUUUUUUUUUUUUUUUUUUUUUUUUUUU
As to B3, in the data set with L1 ORF1p [4], the binding result was “binds”.

B4: d53_pT-b (ssDNA)
DNA: GAGAGATTTTTTTTTTTTTTTTTTTTTTTTTTTTTTTTTTTTTTTTCCAGAGC
B4: in the data set with L1 ORF1p [4], the binding result is given as “binds”.

B5: d29:d29_cmm mismatched duplex (dsDNA)
DNA 1: AAAAAGTACACAGTCTAACATCAACTCGC
DNA 2: GCGAGTTGACGTCAGACCGTGCACTTTTT
Turning to B5, in the data set with L1 ORF1p [5], the binding signal is ~1 fold of ssDNA d29_c affinity.

B6: d60_orf1 (ssDNA)
DNA: GATCATGCAGGACAGTCGGATCGCAACCTGATTTACTGTGTCATATAGTACGTGATTCAG
As for B6, the binding result in the data set with L1 ORF1p [4] is on record as “binds”.

Take ACCUGCACAAUGUGCACAUGAAAAAAAAAA (ssRNA) [r30_3'utr-a]: in the data set with L1 ORF1p [3], the “apparent K (half saturation)” value is roughly 1 nM.

B7: d120_c (ssDNA)
DNA: AGCGAGTTGATGTTAGACTGTGTACTTTTTGCGAGTTGATGTTAGACTGTGTACTTTTTAAGCGAGTTGATGTTAGACTGTGTACTTTTTGCGAGTTGATGTTAGACTGTGTACTTTTTA
Take B7: in the data set with L1 ORF1p [6], the binding result was “binds”.

B8: M128p, N-terminal deletion mutant of human L1 ORF1p (residues 128-338) (domain or fragment)
chain: GMKREGKFREKRIKRNEQSLQEIWDYVKRPNLRLIGVPESDVENGTKLENTLQDIIQENFPNLARQANVQIQEIQRTPQRYSSRRATPRHIIVRFTKVEMKEKMLRAAREKGRVTLKGKPIRLTADLSAETLQARREWGPIFNILKEKNFQPRISYPAKLSFISEGEIKYFIDKQMLRDFVTTRPALKELLKEALNMERNNRYQPLQNHAKM
In the case of B8, in the data set “AUC [7]”, the Kd (commonly the free concentration of one partner at which half of the binding sites on the other are occupied at equilibrium, for simple one-to-one binding) is roughly 3.4 µM and the stoichiometry N (as a rule, the number of molecules, sites or subunits per partner or assembly) was 3. Moreover, the Kd in the data set “AUC [8]” is roughly 35 µM.

B9: d29:d29_c perfect duplex (dsDNA)
DNA 1: AAAAAGTACACAGTCTAACATCAACTCGC
DNA 2: GCGAGTTGATGTTAGACTGTGTACTTTTT
Consider B9, for which, in the data set with L1 ORF1p [9], the binding signal was ~8 fold lower affinity than mismatched duplex N10.

B10: human L1 ORF1 protein (ORF1p), full length, expressed in insect cells (natural protein)
chain: GMGKKQNRKTGNSKTQSASPPPKERSSSPATEQSWMENDFDELREEGFRRSNYSELREDIQTKGKEVENFEKNLEECITRITNTEKCLKELMELKTKARELREECRSLRSRCDQLEERVSAMEDEMNEMKREGKFREKRIKRNEQSLQEIWDYVKRPNLRLIGVPESDVENGTKLENTLQDIIQENFPNLARQANVQIQEIQRTPQRYSSRRATPRHIIVRFTKVEMKEKMLRAAREKGRVTLKGKPIRLTADLSAETLQARREWGPIFNILKEKNFQPRISYPAKLSFISEGEIKYFIDKQMLRDFVTTRPALKELLKEALNMERNNRYQPLQNHAKM
Consider B10, for which, in the data set “AUC [10]”, the “stoichiometry N” value worked out at 3.
